Columns and labels:
[1] = system: HeLa Kyoto; assay: melting temperature (median over replicates), in situ; higher = more thermally stable
[2] = system: HeLa Kyoto; assay: solubility change mitosis vs G1/S (difference of NP-40 vs SDS log2 ratios) (log2 ratio difference); higher = more soluble in mitosis
[3] = system: HeLa Kyoto; assay: solubility in G1/S (NP-40 vs SDS abundance) (log2 ratio); higher = more soluble; settings: cell cycle stage: G1/S
[4] = system: HeLa Kyoto; assay: thermal stability score vs G1/S (z-score of summed log2 fold changes over temperatures); higher = more thermally stable than in G1/S
[5] = cell cycle stage: early G1 (4.5 h after nocodazole release)
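Wherever melting temperature (median over replicates), in situ is given: HeLa Kyoto cells synchronized by double thymidine or nocodazole block, proteins quantified by TMT10plex mass spectrometry, three independent biological replicates.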
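Wherever solubility change mitosis vs G1/S (difference of NP-40 vs SDS log2 ratios) is given: synchronized HeLa Kyoto cells (double thymidine block for G1/S, nocodazole release for mitosis), protein amounts in NP-40 versus SDS lysates quantified by mass spectrometry, three biological replicates.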
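Wherever solubility in G1/S (NP-40 vs SDS abundance) is given: HeLa Kyoto cells arrested at G1/S by double thymidine block, proteins quantified by TMT10plex mass spectrometry in mild NP-40 versus SDS extracts, three biological replicates.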
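Wherever thermal stability score vs G1/S (z-score of summed log2 fold changes over temperatures) is given: synchronized HeLa Kyoto cells, proteins quantified by TMT10plex mass spectrometry, three biological replicates, mitosis taken 0.5 h after nocodazole release, G1/S directly after double thymidine block.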

Which melting temperature ([1]; cell cycle stage: G1/S) does the source give for “MSLWGLVSKMPPEKVQRLYVDFPQHLRHLLGDWLESQPWEFLVGSDAFCCNLASALLSDTVQHLQASVGEQGEGSTILQHISTLESIYQRDPLKLVATFRQILQGEKKAVMEQFRHLPMPFHWKQEELKFKTGLRRLQHRVGEIHLLREALQKGAEAGQVSLHSLIETPANGTGPSEALAMLLQETTGELEAAKALVLKRIQIWKRQQQLAGNGAPFEESLAPLQERCESLVDIYSQLQQEVGAAGGELEPKTRASLTGRLDEVLRTLVTSCFLVEKQPPQVLKTQTKFQAGVRFLLGLRFLGAPAKPPLVRADMVTEKQARELSVPQGPGAGAESTGEIINNTVPLENSIPGNCCSALFKNLLLKKIKRCERKGTESVTEEKCAVLFSASFTLGPGKLPIQLQALSLPLVVIVHGNQDNNAKATILWDNAFSEMDRVPFVVAERVPWEKMCETLNLKFMAEVGTNRGLLPEHFLFLAQKIFNDNSLSMEAFQHRSVSWSQFNKEILLGRGFTFWQWFDGVLDLTKRCLRSYWSDRLIIGFISKQYVTSLLLNEPDGTFLLRFSDSEIGGITIAHVIRGQDGSPQIENIQPFSAKDLSIRSLGDRIRDLAQLKNLYPKKPKDEAFRSHYKPEQMGKDGRGYVPATIKMTVERDQPLPTPELQMPTMVPSYDLGMAPDSSMSMQLGPDMVPQVYPPHSHSIPPYQGLSPEESVNVLSAFQEPHLQMPPSLGQMSLPFDQPHPQGLLPCQPQEHAVSSPDPLLCSDVTMVEDSCLSQPVTAFPQGTWIGEDIFPPLLPPTEQDLTKLLLEGQGESGGGSLGAQPLLQPSHYGQSGISMSHMDLRANPSW [STAT6]” here?
Its melting temperature is 48.4 °C.

What about the melting temperature ([1]; cell cycle stage: mitosis) of the same sequence?
The melting temperature was 49.6 °C.

And the “solubility change mitosis (log2)” value [2]?
Its value is -0.111.

And the “solubility in G1/S (log2)” value [3]?
Its value is 0.0515.

What about the thermal stability score [4, 5] of the same sequence?
The thermal stability score was 0.798.

What about the thermal stability score ([4]; cell cycle stage: mitosis) of the same sequence?
The thermal stability score was 2.24.

For “MSFFNFRKIFKLGSEKKKKQYEHVKRDLNPEDFWEIIGELGDGAFGKVYKAQNKETSVLAAAKVIDTKSEEELEDYMVEIDILASCDHPNIVKLLDAFYYENNLWILIEFCAGGAVDAVMLELERPLTESQIQVVCKQTLDALNYLHDNKIIHRDLKAGNILFTLDGDIKLADFGVSAKNTRTIQRRDSFIGTPYWMAPEVVMCETSKDRPYDYKADVWSLGITLIEMAEIEPPHHELNPMRVLLKIAKSEPPTLAQPSRWSSNFKDFLKKCLEKNVDARWTTSQLLQHPFVTVDSNKPIRELIAEAKAEVTEEVEDGKEEDEEEETENSLPIPASKRASSDLSIASSEEDKLSQNACILESVSEKTERSNSEDKLNSKILNEKPTTDEPEKAVEDINEHITDAQLEAMTELHDRTAVIKENEREKRPKLENLPDTEDQETVDINSVSEGKENNIMITLETNIEHNLKSEEEKDQEKQQMFENKLIKSEEIKDTILQTVDLVSQETGEKEANIQAVDSEVGLTKEDTQEKLGEDDKTQKDVISNTSDVIGTCEAADVAQKVDEDSAEDTQSNDGKEVVEVGQKLINKPMVGPEAGGTKEVPIKEIVEMNEIEEGKNKEQAINSSENIMDINEEPGTTEGEEITESSSTEEMEVRSVVADTDQKALGSEVQDASKVTTQIDKEKKEIPVSIKKEPEVTVVSQPTEPQPVLIPSININSDSGENKEEIGSLSKTETILPPESENPKENDNDSGTGSTADTSSIDLNLSISSFLSKTKDSGSISLQETRRQKKTLKKTRKFIVDGVEVSVTTSKIVTDSDSKTEELRFLRRQELRELRFLQKEEQRAQQQLNSKLQQQREQIFRRFEQEMMSKKRQYDQEIENLEKQQKQTIERLEQEHTNRLRDEAKRIKGEQEKELSKFQNMLKNRKKEVINEVEKAPKELRKELMKRRKEELAQSQHAQEQEFVQKQQQELDGSLKKIIQQQKAELANIERECLNNKQQLMRAREAAIWELEERHLQEKHQLLKQQLKDQYFMQRHQLLKRHEKETEQMQRYNQRLIEELKNRQTQERARLPKIQRSEAKTRMAMFKKSLRINSTATPDQDRDKIKQFAAQEEKRQKNERMAQHQKHENQMRDLQLQCEANVRELHQLQNEKCHLLVEHETQKLKELDEEHSQELKEWREKLRPRKKTLEEEFARKLQEQEVFFKMTGESECLNPSTQSRISKFYPIPSLHSTGS”, which melting temperature ([1]; cell cycle stage: G1/S) is on record?
The melting temperature was 50.2 °C.

What about the melting temperature ([1]; cell cycle stage: mitosis) of the same sequence?
The melting temperature was 49.9 °C.

What about the “solubility change mitosis (log2)” value [2] of the same sequence?
Its value is -0.139.

And the “solubility in G1/S (log2)” value [3]?
The value was 0.0156.

What about the thermal stability score [4, 5] of the same sequence?
The thermal stability score was -0.208.

What about the thermal stability score ([4]; cell cycle stage: mitosis) of the same sequence?
Its thermal stability score is 0.991.

Which melting temperature ([1]; cell cycle stage: G1/S) does the source give for “MYHNSSQKRHWTFSSEEQLARLRADANRKFRCKAVANGKVLPNDPVFLEPHEEMTLCKYYEKRLLEFCSVFKPAMPRSVVGTACMYFKRFYLNNSVMEYHPRIIMLTCAFLACKVDEFNVSSPQFVGNLRESPLGQEKALEQILEYELLLIQQLNFHLIVHNPYRPFEGFLIDLKTRYPILENPEILRKTADDFLNRIALTDAYLLYTPSQIALTAILSSASRAGITMESYLSESLMLKENRTCLSQLLDIMKSMRNLVKKYEPPRSEEVAVLKQKLERCHSAELALNVITKKRKGYEDDDYVSKKSKHEEEEWTDDDLVESL [CCNH]” here?
The melting temperature was 51.1 °C.

What about the melting temperature ([1]; cell cycle stage: mitosis) of the same sequence?
The melting temperature was 52.2 °C.

What about the “solubility change mitosis (log2)” value [2] of the same sequence?
Its value is -0.195.

What about the “solubility in G1/S (log2)” value [3] of the same sequence?
Its value is 0.259.

What about the thermal stability score [4, 5] of the same sequence?
Its thermal stability score is 0.868.

What about the thermal stability score ([4]; cell cycle stage: mitosis) of the same sequence?
The thermal stability score was 1.73.

With “MWTFLGIATFTYFYKKFGDFITLANREVLLCVLVFLSLGLVLSYRCRHRNGGLLGRQQSGSQFALFSDILSGLPFIGFFWAKSPPESENKEQLEARRRRKGTNISETSLIGTAACTSTSSQNDPEVIIVGAGVLGSALAAVLSRDGRKVTVIERDLKEPDRIVGEFLQPGGYHVLKDLGLGDTVEGLDAQVVNGYMIHDQESKSEVQIPYPLSENNQVQSGRAFHHGRFIMSLRKAAMAEPNAKFIEGVVLQLLEEDDVVMGVQYKDKETGDIKELHAPLTVVADGLFSKFRKSLVSNKVSVSSHFVGFLMKNAPQFKANHAELILANPSPVLIYQISSSETRVLVDIRGEMPRNLREYMVEKIYPQIPDHLKEPFLEATDNSHLRSMPASFLPPSSVKKRGVLLLGDAYNMRHPLTGGGMTVAFKDIKLWRKLLKGIPDLYDDAAIFEAKKSFYWARKTSHSFVVNILAQALYELFSATDDSLHQLRKACFLYFKLGGECVAGPVGLLSVLSPNPLVLIGHFFAVAIYAVYFCFKSEPWITKPRALLSSGAVLYKACSVIFPLIYSEMKYMVH [SQLE]” as the sequence, how does the melting temperature ([1]; cell cycle stage: G1/S) read?
Its melting temperature is 52.7 °C.

And the melting temperature ([1]; cell cycle stage: mitosis)?
Its melting temperature is 53.3 °C.

And the “solubility change mitosis (log2)” value [2]?
The value was -0.0643.

And the “solubility in G1/S (log2)” value [3]?
The value was -0.21.

What about the thermal stability score [4, 5] of the same sequence?
The thermal stability score was -0.599.

What about the thermal stability score ([4]; cell cycle stage: mitosis) of the same sequence?
The thermal stability score was -0.00194.

What does the source list for “MALRGVSVRLLSRGPGLHVLRTWVSSAAQTEKGGRTQSQLAKSSRPEFDWQDPLVLEEQLTTDEILIRDTFRTYCQERLMPRILLANRNEVFHREIISEMGELGVLGPTIKGYGCAGVSSVAYGLLARELERVDSGYRSAMSVQSSLVMHPIYAYGSEEQRQKYLPQLAKGELLGCFGLTEPNSGSDPSSMETRAHYNSSNKSYTLNGTKTWITNSPMADLFVVWARCEDGCIRGFLLEKGMRGLSAPRIQGKFSLRASATGMIIMDGVEVPEENVLPGASSLGGPFGCLNNARYGIAWGVLGASEFCLHTARQYALDRMQFGVPLARNQLIQKKLADMLTEITLGLHACLQLGRLKDQDKAAPEMVSLLKRNNCGKALDIARQARDMLGGNGISDEYHVIRHAMNLEAVNTYEGTHDIHALILGRAITGIQAFTASK [GCDH]”?
melting temperature ([1]; cell cycle stage: G1/S): 54.2 °C; melting temperature ([1]; cell cycle stage: mitosis): 54.7 °C; solubility change mitosis (log2) [2]: -0.103; solubility in G1/S (log2) [3]: 0.217; thermal stability score [4, 5]: -0.63; thermal stability score ([4]; cell cycle stage: mitosis): 1.21
